Key:
AncSZ = test: phosphorylation enrichment, bacterial display (enrichment ratio); higher = better substrate or ligand; peptides without Tyr show the background
EPHB1 = EPHB1 (UniProt P54762); test: as above
EPHB2 = EPHB2 (UniProt P29323); test: as above
FGFR1 = FGFR1 (UniProt P11362); test: as above
FGFR3 = FGFR3 (UniProt P22607); test: as above
Fer (mouse) = test: as above
Fes = Fes (UniProt P07332); test: as above
Fyn = Fyn (UniProt P06241); test: as above
Hck = Hck (UniProt P08631); test: as above
Jak2 = Jak2 (UniProt O60674); test: as above
MERTK = MERTK (UniProt Q12866); test: as above
c-Abl (mouse) = test: as above
c-Src = test: as above
Grb2 SH2 = Grb2 SH2 (UniProt P62993); test: SH2 binding enrichment of the phosphorylated peptide, bacterial display (enrichment ratio); higher = better substrate or ligand; peptides without Tyr show the background
SHP2-C SH2 = test: as above
c-Src SH2 = test: as above
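For SH2 binding enrichment of the phosphorylated peptide, bacterial display in this document: peptide library displayed on the E. coli surface as eCPX fusions, selected cells deep-sequenced, score is each peptide's frequency after selection divided by its frequency in the input.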
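For phosphorylation enrichment, bacterial display in this document: 11-residue human phosphosite peptides and single-mutation variants displayed on the E. coli surface, counted by deep sequencing, each peptide's frequency after selection divided by its frequency in the unselected input library; frequency after pTyr selection over input frequency; kinase dosed for 20-30% of maximal phosphorylation in three min.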

Chain of Jak2 (O60674 whole entry, looked up): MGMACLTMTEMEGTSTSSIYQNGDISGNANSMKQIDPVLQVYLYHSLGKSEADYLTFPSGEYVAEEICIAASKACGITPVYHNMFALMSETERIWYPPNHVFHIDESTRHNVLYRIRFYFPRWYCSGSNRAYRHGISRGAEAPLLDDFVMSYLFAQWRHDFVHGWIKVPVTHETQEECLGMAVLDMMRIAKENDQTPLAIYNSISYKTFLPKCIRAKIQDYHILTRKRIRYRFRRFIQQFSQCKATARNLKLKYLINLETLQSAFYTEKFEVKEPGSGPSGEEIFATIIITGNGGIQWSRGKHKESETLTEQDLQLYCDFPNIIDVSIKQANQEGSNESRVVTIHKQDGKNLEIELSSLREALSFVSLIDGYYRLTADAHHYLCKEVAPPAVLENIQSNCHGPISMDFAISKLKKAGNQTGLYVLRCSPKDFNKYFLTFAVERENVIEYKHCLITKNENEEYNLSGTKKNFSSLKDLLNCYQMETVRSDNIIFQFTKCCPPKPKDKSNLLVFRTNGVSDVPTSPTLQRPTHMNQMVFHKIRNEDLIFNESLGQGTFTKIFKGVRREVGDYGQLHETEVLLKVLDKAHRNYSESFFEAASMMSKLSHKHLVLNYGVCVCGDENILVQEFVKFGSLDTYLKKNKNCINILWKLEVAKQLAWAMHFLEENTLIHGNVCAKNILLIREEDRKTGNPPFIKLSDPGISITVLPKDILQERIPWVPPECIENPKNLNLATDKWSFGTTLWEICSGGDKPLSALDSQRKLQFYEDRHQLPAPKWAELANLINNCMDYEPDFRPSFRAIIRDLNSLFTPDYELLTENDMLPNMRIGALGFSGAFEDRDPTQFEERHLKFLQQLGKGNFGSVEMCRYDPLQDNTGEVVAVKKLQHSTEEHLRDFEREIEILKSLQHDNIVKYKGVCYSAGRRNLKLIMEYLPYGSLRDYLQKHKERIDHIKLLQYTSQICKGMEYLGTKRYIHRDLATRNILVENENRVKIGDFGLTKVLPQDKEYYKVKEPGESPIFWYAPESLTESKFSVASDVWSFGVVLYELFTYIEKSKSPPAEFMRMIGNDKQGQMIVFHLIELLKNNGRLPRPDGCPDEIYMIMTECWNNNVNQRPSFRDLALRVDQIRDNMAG
Chain of Fyn (P06241 whole entry, looked up): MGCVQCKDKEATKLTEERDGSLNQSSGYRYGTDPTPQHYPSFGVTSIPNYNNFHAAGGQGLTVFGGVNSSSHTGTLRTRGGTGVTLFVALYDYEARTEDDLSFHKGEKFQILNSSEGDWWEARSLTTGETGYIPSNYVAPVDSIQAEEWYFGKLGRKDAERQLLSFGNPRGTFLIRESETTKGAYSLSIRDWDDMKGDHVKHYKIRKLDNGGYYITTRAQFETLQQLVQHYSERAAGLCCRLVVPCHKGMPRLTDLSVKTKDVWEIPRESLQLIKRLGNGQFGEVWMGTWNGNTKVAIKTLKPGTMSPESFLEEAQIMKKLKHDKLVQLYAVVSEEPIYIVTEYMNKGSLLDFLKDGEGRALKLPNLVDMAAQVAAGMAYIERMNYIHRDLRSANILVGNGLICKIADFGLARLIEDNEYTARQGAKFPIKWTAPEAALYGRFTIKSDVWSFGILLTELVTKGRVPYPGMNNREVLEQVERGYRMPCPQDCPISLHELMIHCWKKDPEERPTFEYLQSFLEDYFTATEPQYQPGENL
Chain of Grb2 SH2 (P62993 whole entry, looked up): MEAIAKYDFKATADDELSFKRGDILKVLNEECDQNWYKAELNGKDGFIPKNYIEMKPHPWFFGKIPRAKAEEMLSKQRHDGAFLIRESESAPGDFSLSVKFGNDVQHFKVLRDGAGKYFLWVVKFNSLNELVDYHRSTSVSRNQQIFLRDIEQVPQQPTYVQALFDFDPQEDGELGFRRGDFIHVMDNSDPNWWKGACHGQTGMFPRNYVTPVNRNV
Chain of EPHB2 (P29323 whole entry, looked up): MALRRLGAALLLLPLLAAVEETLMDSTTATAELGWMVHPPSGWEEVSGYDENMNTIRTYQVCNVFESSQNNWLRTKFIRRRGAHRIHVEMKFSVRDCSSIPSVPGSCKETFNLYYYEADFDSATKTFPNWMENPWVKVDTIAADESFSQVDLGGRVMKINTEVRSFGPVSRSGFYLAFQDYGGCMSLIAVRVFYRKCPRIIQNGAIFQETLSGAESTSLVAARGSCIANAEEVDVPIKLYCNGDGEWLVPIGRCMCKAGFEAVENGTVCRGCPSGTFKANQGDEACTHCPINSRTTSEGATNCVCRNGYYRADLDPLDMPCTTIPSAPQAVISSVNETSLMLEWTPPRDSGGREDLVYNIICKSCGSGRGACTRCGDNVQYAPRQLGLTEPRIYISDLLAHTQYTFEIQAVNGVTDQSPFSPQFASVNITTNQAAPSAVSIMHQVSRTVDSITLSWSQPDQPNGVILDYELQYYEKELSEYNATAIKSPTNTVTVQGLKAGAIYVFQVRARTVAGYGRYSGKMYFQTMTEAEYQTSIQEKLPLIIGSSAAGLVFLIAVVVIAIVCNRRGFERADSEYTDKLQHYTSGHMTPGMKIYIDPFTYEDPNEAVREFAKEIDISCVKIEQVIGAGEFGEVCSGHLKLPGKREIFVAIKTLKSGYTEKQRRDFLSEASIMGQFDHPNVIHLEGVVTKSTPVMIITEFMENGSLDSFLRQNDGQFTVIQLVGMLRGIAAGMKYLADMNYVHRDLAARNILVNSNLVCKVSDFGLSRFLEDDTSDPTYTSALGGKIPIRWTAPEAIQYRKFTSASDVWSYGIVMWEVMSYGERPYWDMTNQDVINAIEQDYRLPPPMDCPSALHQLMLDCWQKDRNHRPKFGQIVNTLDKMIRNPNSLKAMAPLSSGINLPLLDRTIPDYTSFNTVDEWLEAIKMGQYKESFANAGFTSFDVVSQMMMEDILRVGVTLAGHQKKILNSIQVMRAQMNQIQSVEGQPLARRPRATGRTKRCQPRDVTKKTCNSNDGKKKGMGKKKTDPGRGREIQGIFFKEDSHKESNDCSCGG
Chain of FGFR1 (P11362 whole entry, looked up): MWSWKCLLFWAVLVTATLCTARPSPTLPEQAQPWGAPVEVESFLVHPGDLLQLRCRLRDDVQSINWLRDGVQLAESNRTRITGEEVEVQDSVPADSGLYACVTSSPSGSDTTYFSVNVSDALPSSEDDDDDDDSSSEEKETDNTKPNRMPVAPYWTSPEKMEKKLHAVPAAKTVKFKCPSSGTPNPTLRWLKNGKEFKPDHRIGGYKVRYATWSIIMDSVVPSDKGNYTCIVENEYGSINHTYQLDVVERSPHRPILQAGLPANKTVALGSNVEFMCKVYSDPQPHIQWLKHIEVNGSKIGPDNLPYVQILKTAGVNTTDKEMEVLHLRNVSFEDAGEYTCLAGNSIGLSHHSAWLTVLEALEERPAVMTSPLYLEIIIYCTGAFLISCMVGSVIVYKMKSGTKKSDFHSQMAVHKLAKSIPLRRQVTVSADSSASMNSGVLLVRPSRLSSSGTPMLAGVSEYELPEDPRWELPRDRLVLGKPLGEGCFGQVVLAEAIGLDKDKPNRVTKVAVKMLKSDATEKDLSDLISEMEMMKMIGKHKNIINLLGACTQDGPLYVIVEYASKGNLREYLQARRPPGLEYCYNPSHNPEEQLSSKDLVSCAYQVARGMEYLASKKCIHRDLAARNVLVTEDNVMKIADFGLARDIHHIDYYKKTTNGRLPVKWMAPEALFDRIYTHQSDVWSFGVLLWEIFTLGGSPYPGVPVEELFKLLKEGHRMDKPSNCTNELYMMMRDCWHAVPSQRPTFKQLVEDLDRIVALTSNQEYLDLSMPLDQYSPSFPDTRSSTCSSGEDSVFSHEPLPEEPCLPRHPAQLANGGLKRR
Chain of Hck (P08631 whole entry, looked up): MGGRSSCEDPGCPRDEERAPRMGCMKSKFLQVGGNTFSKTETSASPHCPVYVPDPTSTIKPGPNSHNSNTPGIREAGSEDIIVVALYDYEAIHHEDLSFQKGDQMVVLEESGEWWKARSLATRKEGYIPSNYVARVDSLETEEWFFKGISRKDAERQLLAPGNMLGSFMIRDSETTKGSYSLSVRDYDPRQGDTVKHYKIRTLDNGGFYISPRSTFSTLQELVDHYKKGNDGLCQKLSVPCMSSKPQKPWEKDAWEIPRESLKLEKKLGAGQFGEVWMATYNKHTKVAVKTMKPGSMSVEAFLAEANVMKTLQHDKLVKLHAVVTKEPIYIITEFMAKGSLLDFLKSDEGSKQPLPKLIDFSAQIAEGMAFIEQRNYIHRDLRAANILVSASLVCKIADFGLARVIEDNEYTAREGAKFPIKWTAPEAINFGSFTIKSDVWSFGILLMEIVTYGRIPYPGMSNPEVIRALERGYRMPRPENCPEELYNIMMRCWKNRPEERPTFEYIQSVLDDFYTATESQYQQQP

Sequence	phosphorylation enrichment (AncSZ)	phosphorylation enrichment (EPHB1)	phosphorylation enrichment (EPHB2)	phosphorylation enrichment (FGFR1)	phosphorylation enrichment (FGFR3)	phosphorylation enrichment (Fer (mouse))	phosphorylation enrichment (Fes)	phosphorylation enrichment (Fyn)	phosphorylation enrichment (Hck)	phosphorylation enrichment (Jak2)	phosphorylation enrichment (MERTK)	phosphorylation enrichment (c-Abl (mouse))	phosphorylation enrichment (c-Src)	SH2 binding enrichment (Grb2 SH2)	SH2 binding enrichment (SHP2-C SH2)	SH2 binding enrichment (c-Src SH2)
GLRSYYETSKM [MAGED2_Y449]	0.592	0.475	0.584	1.44	1.13	0.465	0.762	0.417	0.656	0.784	0.546	0.534	0.591	0.839	0.638	0.842
GLRYGYGVLGG [KRTAP20-2_Y15]	0.596	0.407	0.398	0.447	0.497	0.432	0.605	0.495	0.443	0.586	0.413	0.487	0.9	0.933	0.769	0.723
GLSAPYVKIHL [SYT2_Y309_D307A]	0.747	0.426	0.423	0.436	0.714	0.527	0.785	0.337	0.443	0.994	0.43	0.509	0.383	1.03	3.06	1.07
GLSDPYVKIHL [SYT2_Y309]	0.693	0.425	0.721	0.546	0.589	0.488	0.993	0.458	0.406	0.787	0.397	0.556	0.376	0.873	1.07	0.836
GLTSTYVGIRK [ROBO1_Y932_A933V]	0.756	0.471	0.506	0.46	0.489	0.374	0.775	0.528	1.67	0.598	0.463	0.565	0.562	0.741	11.5	0.649
GRTNICKNKKD [SLC26A3_Y520_Y520C]	0.631	0.462	0.447	0.471	0.911	0.448	0.973	0.331	0.482	1.16	0.366	1.39	0.437	1.79	1.4	1.43
GRVLGYGAFRK [FLT4_Y853_G857R]	0.634	0.44	0.432	0.477	0.495	0.406	0.586	0.517	0.486	0.539	0.482	0.644	0.52	0.671	0.733	0.549
GSERRYTREGG [PTPRN2_Y139_S140T]	0.448	0.345	0.347	0.458	0.407	0.351	0.583	0.319	0.415	0.463	0.382	0.489	0.482	0.777	0.563	0.485

Reference: the supplement of paper PMC10065799, “High-throughput profiling of sequence recognition by tyrosine kinases and SH2 domains using bacterial peptide display” (eLife, 2023)
